The data set in a line: soluble fraction after stress (log2 fold change); higher = more stays soluble; pooled small domains, quantitative proteomics. The conditions noted are these: stress: 50 degC. In a few lines:
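Pooled custom libraries of small protein domains were measured in a high-throughput format, with quantitative proteomics as the read-out. Each library was stressed at 50°C. Aggregation propensity is given as the base-two logarithm of the fold change in how much of each protein stays soluble after the stress. Higher values mean a larger share of the protein remains in solution.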
On to “HMTGLSFEEKDLLGNALKLLDETERRIVILHATSGLKHREIAKQLDIPLPTVLSKYTRAIKKLKKHME”, for which the “soluble fraction (log2)” value is -0.0942. Take “HMTGPSYTTRRVEAAETMMEFLRTFPQAAPFIGDLYVKAQDWPLGEEIGDRLKKMLPPQLQE”: the “soluble fraction (log2)” value was -0.519. As to “HMTGQVASMVERLAQRLKDQPQDAEGWAMLARSYSVLGRHPEALQAYEKALALRKDDANLLADYADSLA”, the “soluble fraction (log2)” value was -0.087. Regarding “HMTGRHEEAIQELKRTLELHPQKPKIFLLLGVSYLRLNNLKKAVEAFNTVLLLQPKNQKALTMLKEIKKR”, the “soluble fraction (log2)” value is 0.0384.

“HMTGSLLVEVQGRPDADRLLGQALVDAGLTARPAGGALIEVEVRDETTPDVVRDLTVDLGLGLVRMQERH”: the “soluble fraction (log2)” value was -0.702. As to “HMTGSLRIKHKTYYMLFSWKDESGQWRQKSESTGIPERGGKRKAQEMLNTRLEELQLQSTASL”, the “soluble fraction (log2)” value is -3.75.

In the case of “HMTGSLRVTSSPSGAEIYVDEIYRGYTPLTIGSLSTGRHEVRLHLSGYQDYTRTVEIESGSQSSFSVTLT”, the “soluble fraction (log2)” value was 0.0152. Under “HMTGSTSVAQVSTPSGSLNLRAYASTSARVLLQIPEYAFVTVYNRGATWSYVSYNGVSGYVMSVYLSFGG” stands -1.01; under “HMTGTVKVNSLNVYKSASLDSEVKDTLVLNTKVTIAENGQVTDGIYVWGRLQSGEGYVQMNNLTL”, -0.687; under “HMTHRRLELTLDAIDERLDRALTAAVPELSRMQWQRLIREGLVTVDGERARPSYRIQGGETLVALVPEV”, -0.234. With “HMTIAEGLIFRFTEPFKPIDQYTYYIMGDNKVEQIPNFKTLEVMLAQRNQNYLSVRVIEKSQLDDILKEF”, the “soluble fraction (log2)” value was -4.04.

For “HMTIDETKKQQVKDGLKDIPGVTVEFVGDKAVLKGAVTDANRVKIMQIVMAAKVLSDASGLTSK”, the “soluble fraction (log2)” value was -0.11. For the sequence “HMTIDTSNDLLNQITEATSKGPISILELKDQLNVNASDIEGELRTLIDQHLVFLKDGMLQVIPFD”, the “soluble fraction (log2)” value was -0.0624. As for “HMTIEEMAIENINFSTQLLYKAMKYNGVNTVGDLLEKARSKKDLLTMAYIGNKEAEEIIEKLSELGITI”, the “soluble fraction (log2)” value is -0.23. Consider “HMTIFGWQQDETGKWYRNADGTFYENGWKEIDGAQYYFDENGYVTTGWLELDGKDYYFDEEGKYDSTKVR”, for which the “soluble fraction (log2)” value was -0.46. With “HMTIGPALAIGGNKVEMTQQGKIQVTNPQGKIKTLSQDEFKKQLVKNADKIEAGQDFEFKKD”, the “soluble fraction (log2)” value turned out to be 0.263. As for “HMTIKLFPNPSTDFIRVSELSAKENYKIYTILGSEIKRGSVSNNETIDIRNLNSGVYLLKFDNGTTKKIVK”, the “soluble fraction (log2)” value was -0.886. The result for “HMTIKTAFPAEDLAKPDNFKSLLYYFGLLTIRGTKWGSTLLAIPNLTVREQLYSYLVEAYRSADL” reads 0.291. As to “HMTILKEGMSGPEVERLQDALKRHGFDPGRVDGQFGPGTEAAILAFQKSEGLRADGVAGPKTQQALGLE”, the “soluble fraction (log2)” value turned out to be 0.131. Take “HMTIRLKELRKQKGNTQAEVAKILGTNQSQYGKYENERTQLSLDNAKILSDYFGVSVPYLLGLDDNP”: the “soluble fraction (log2)” value was -0.0854.

On to “HMTISDTAYQAFLEQLGVGMVVEHKRFGEGVITGMPKGKIRITFEEGTKSFQARALAESGMLK”, for which the “soluble fraction (log2)” value is -0.59. On to “HMTISIAEQIFEQLEREILSGAYPRGELLTETKLSEKLGVSRTPIREALRRLDQEHIIKMTTKGAFVLGI”, for which the “soluble fraction (log2)” value is -2.04.

Take “HMTITIGNSDGGYMKMGADGFEVRFSGSDGGNHYAKMYYNNDGWARLTLGSYGEEKARIDSDGMIQTR”: the “soluble fraction (log2)” value is -0.113. “HMTKEAIAQKLRIARQESGLTQKDVSAKIGRPQQTIASWEVGRSQPDADTLYSLLLLYKVSPNTFFEYD”: the “soluble fraction (log2)” value is -0.352.

With “HMTKEEIVVNWLPRYTKRNLEDFGEYILLTNFNKYVEIFAEKFNVPILGRDANMISASAEGITIIN”, the “soluble fraction (log2)” value is -0.191. For the sequence “HMTKEEREKREKYEKLMKKAEELTAAKNHREVINVLGQAKAYATAAQLKEIEEKIKAATSEMNK”, the “soluble fraction (log2)” value is 0.136. In the case of “HMTKEGVNISITADGVQLSTESPNRVSIFNVNGTKVWEGIAPANVSLQKGVYILQTANGNTKFV”, the “soluble fraction (log2)” value turned out to be 0.265. On to “HMTKLLITNYERNVLINSYLLKNTPELDDIRRLLVHNKHISENDVSTEMARRIKKHKADWLRVT”, for which the “soluble fraction (log2)” value was -2.71. With “HMTKLTPLEVNLYAKKLANDPEFGSKHIEPGESFSQAEERLRVQLSQQEYVQKYSKYLKKLKASA”, the “soluble fraction (log2)” value came to 0.0851. Take “HMTKPAEVRIDELMNAAQTLFLAKGVEATTISEIIASVGVAKGTFYHYFESKQHIVEALKKRYID”: the “soluble fraction (log2)” value is -1.49. Regarding “HMTKQNVVPLMYRMIDTLEQFIKADVPFNIETRLARVERLRETMVSSSVTTSEKFRQVLEAYTIETD”, the “soluble fraction (log2)” value was -0.924. Under “HMTKSEWLRESREHLGLSQTDLRNLLNTALNRSYDKSRISRWENSKENIPAEVVKQIESLIATR” stands 0.123; under “HMTKTRTEILEYLKQNWSVTVSASDIKKHLEEKEIKANTTTIYRYLDKLLAEHVIIKYADAGSERAVYQYS”, -2.31; under “HMTKVIEFLVSDEEHGVRADKAFVSHNQKLSRSYFKKLILNGNLYINNKVNLDPSYKLIKGSTVRIILPE”, -2.07.

With “HMTKVKIDRLFSIVQMLVNRKSVTAKELADYFNVSVRTIYRDIEILSANGIPIYATQGKGGGISILEN”, the “soluble fraction (log2)” value is -1.05. In the case of “HMTKYEGLSLDLIIDGVVITHNLKLAKLDMNWLLDRLKENGWDNPKDIFYAYIDTAGNFRFQPKLKASRTR”, the “soluble fraction (log2)” value came to 0.202. The result for “HMTKYREVLRMSAGGFSQRVIASTLSISRNTVASTLKRAREQNLDWEAVEQQRLSEKDIANLLFP” reads -0.996; that for “HMTLAEEFNNLNGKVITRETLESLLVKAEKEQNSTISNRIRKVLQAYTADTFLIELQHTESA”, 0.0776. The result for “HMTLALKQGSTGSTVKQVQQKLKNWGYYSGAVDGIFGSGTRKAVVLFQKRNKLTADGIVGSKTLEALGIYV” reads -1.05.

On to “HMTLDDSIALGRSLLDKGLMDFGTNLANLAEDKLRDFLSQQRYENLDDLFADIARGNRLPMFTAQQLLS”, for which the “soluble fraction (log2)” value was -0.187. For “HMTLDVALSKEIKYMLKEEHYLPGDKLPSERKLAELFHVQRLTVRGALNLLLQDKTIISKPRSGYYVAPKR”, the “soluble fraction (log2)” value was -3.1. For “HMTLFDESGYTARELEIIREVANGLSNKEIADKLFLSEGTVKNYITGILAKENLSHRTALAVYYLTGRK”, the “soluble fraction (log2)” value was 0.0583.

As to “HMTLHEAMEKLFRQVGRPMTTKEIAEKLNENKWYQKADGSPLTPYQIYGRAKNYPALFHREGSIIYLKGS”, the “soluble fraction (log2)” value was -0.41.

Regarding “HMTLKTISLTEAIKNTNEGNYSKLVLDGNELTITEQGKETPSLKTYTEPGTSLKEQGFDLSKVEFEAREQS”, the “soluble fraction (log2)” value came to 0.152. Take “HMTLNQEELMGKTEAILFAGGEPVSLDRIAQVLGVRTPVIDSIVSALQEKYNTPTSGIQLMRL”: the “soluble fraction (log2)” value was -0.143. Under “HMTLPELTDRELQILQLLSVGNSSQKIAKQLNISTHTVSTHRKQLLRKLGAQNGADLIRRAQKLGIL” stands -0.44; under “HMTLQEFYARVGGDYNATLSRLPSEALVKKFILKYPGDPSFAQLKDALAAQDWELAFRASHTLKGVAQN”, -1.3; under “HMTLSAPMPGTVLKIHVKEGQRVRKGQTLVVLEAMKMEHRIQAPKAGEVTNLHFSEGDRVDMGEILVEIG”, 0.0894. The result for “HMTLSDDEFEIIKSLIIDTLKEEALTINALTKKINHKEAKTIQVIRFLLDNGLVAENNLMKLFVI” reads -0.821. Regarding “HMTLTIEDQLRRLRARLGRGRAFLFSDVLVNPHDRTEIAVTLLALLELIKRREAQASQSYLFGPIEVAAA”, the “soluble fraction (log2)” value is -1.94. The result for “HMTLTLEQAAAIKNSEGEQYGKIESERLAAMSVQIDKAIKSNGHDPNKKADLERKLDAIGIILNARAAG” reads 0.122; that for “HMTLVKRSAMVTAWSEFAGGRVNSKLIALQNGKAGDWIELENPQSGRKLRGRVQSDGSVRLGS”, 0.169. Take “HMTLYITDQMRKILDYVATNQEIDEKAVMDLLSIQRTRAYLIAKKMTDIGLLQVQGRGKTKTYRLAARS”: the “soluble fraction (log2)” value is -1.93. For “HMTLYQIGDKVVHPMHGAGVIDSVVQRKVSGQVQEFYLLKLSVGNMVVMVPTDNTGEIGMRP”, the “soluble fraction (log2)” value was -1.01. Turning to “HMTMEQAEFLSRQFNLLSQRLNDPSIEWQDIADLRSEYTGEDEHRDTIRKGAKLFYEYLEAGWIKN”, the “soluble fraction (log2)” value is -0.581.

“HMTMKNPNGYGSVINLGKGRRRPWAARVTTGLVYDEKKDKLIQRYKYIGYADTRKEAHQILAEYNAGLPI”: the “soluble fraction (log2)” value was -1.43. Consider “HMTMMTFGEKLQNARKGAGLSQEQLAEKLSVSRSAVAKWENDNGMPDIDNLKAIAQLLDVSIDYLLEN”, for which the “soluble fraction (log2)” value was 0.133. Take “HMTMNLIEIGHVVGARRAELGLTQAQLAHLSGLSRQTVVGLEKGTLSDLGVNRVGQVMAVLGLDS”: the “soluble fraction (log2)” value is -0.51. On to “HMTMPDFGYMRVSYAEARRQLQAIGISVSTIEKVEDPSHTSATGDMVISQYPAAGSKIEGTVTLYVSVAS”, for which the “soluble fraction (log2)” value was -0.779.

In the case of “HMTMSFSELLRGLRKSRGMSQAELATAVGLSQAQVSQIETGKLLPSPELIEKLAALYGIALGSA”, the “soluble fraction (log2)” value is -0.139. On to “HMTMTKELGQRIRAERTARKMTQEELAERADLHPTYIGQVERGEKSLTIASLEKIVEGLGISFSDLFEN”, for which the “soluble fraction (log2)” value is -0.0406.

As for “HMTMVKYRYLTDGELKEFEEEFKHFLIANGLHSEEWERLNNEDSNKAIEVVALFSNLILDKV”, the “soluble fraction (log2)” value was -1.54. As to “HMTMVLPDAARDKLKAIGLSIEHVEPSPVKDIFTVISREGVSYVSKDGDYIFTGSLFHVKGKDVVNTTEQA”, the “soluble fraction (log2)” value came to 0.128. Take “HMTNEAFITPSVLEWAIKRAGVSAESIHKKAEQWVSGKARPTFKQAVDIAKTLQIPFGYLWLKEPPKEQ”: the “soluble fraction (log2)” value was -0.551. For the sequence “HMTNELVNVNKLLDVMEPSIPLTALEIMTRLGIKSKETLRNSYLNPAIKLGMINLTSPLKPTSKNQMYYK”, the “soluble fraction (log2)” value was -0.307. For “HMTNKSKQRRNEILRASQELFNKKGFHDTSINDIMRRVGAAKGVFYYYFETKDQILDTLIEQHIA”, the “soluble fraction (log2)” value is -0.907. For the sequence “HMTNLTPKQQQIYQFIRASTQANGYPPTLREIGQQVGVRSPSTVKYHLDNLRTLGLLHWDGGKTRSITLP”, the “soluble fraction (log2)” value was -0.372. The result for “HMTNNFIVTWRNYNEEVLEIDVNVKKGSMPKYNGKTPEREGYQFVGWDPEITEVTKDITYVAQFM” reads -0.415; that for “HMTNQKEITYSQFRQELDQGSIKSVSLQGSRIRGTYVDGGISFRTLAPNDADLIPSLMKHKVDIQVLPED”, 0.247.

The values above are taken from the domain aggregation screens of Martell et al. (2025).
